Here are results for one molecule from patent publication US9493781B2, “Synthetic brassica-derived chloroplast transit peptides” (DOW AGROSCIENCES LLC, priority 2012, dated 2016).

For test [1], the system named is chloroplasts of tobacco cells. Briefly: Tobacco transient assay: confocal microscopy of TraP-YFP localization. In kind it is cell-based, Nicotiana benthamiana. Particulars: Agrobacterium-infiltrated tobacco leaves. The text has this:
The Trap8 and TraP9 chimeric chloroplast transit peptide sequences were initially tested via a transient in planta assay. Polynucleotide sequences which encode the Trap8 (SEQ ID NO:5) and TraP9 (SEQ ID NO:6) chimeric chloroplast transit peptide sequences were synthesized. A linker sequence (SEQ ID NO:7) was incorporated between the TraP sequence and the yfp coding sequence. The resulting constructs contained two plant transcription units (PTU). The first PTU was comprised of the Arabidopsis thaliana Ubiquitin 10 promoter (AtUbi10 promoter; Callis, et al., (1990) J. Biol. Chem., 265: 12486-12493), TraP-yellow fluorescent protein fusion gene (TraP-YFP; US Patent App. 2007/0298412), and Agrobacterium tumefaciens ORF 23 3′ untranslated region (AtuORF23 3′UTR; U.S. Pat. No. 5,428,147). […]
Agrobacterium-infiltrated tobacco leaves were severed from the plant, and placed into a petri-dish with water to prevent dehydration. The infiltrated tobacco leaves were observed under blue light excitation with long-pass filter glasses held in place using a Dark Reader Hand Lamp™ (Clare Chemical Research Co.; Dolores, Colo.) to identify undamaged areas of the leaf that were successfully expressing the YFP reporter proteins. […]

In a further test the test system is YFP protein. Kind of test: Western blot of infiltrated tobacco leaves (YFP expression, transit peptide processing). The arrangement: species or system Nicotiana benthamiana. Particulars: infiltrated tobacco leaf tissue. As for the experimental part: Samples of the infiltrated tobacco plants were assayed via Western blotting. Leaf punches were collected and subjected to bead-milling. About 100-200 mg of leaf material was mixed with 2 BBs (steel balls) (Daisy; Rogers, Ark.) and […] of PBST for 3 minutes in a Kleco™ bead mill. The samples were then spun down in a centrifuge at 14,000×g at 4° C. The supernatant was removed and either analyzed directly via Western blot or immunoprecipitated. The immunoprecipitations were performed using the Pierce Direct IP Kit™ (Thermo Scientific; Rockford, Ill.) following the manufacturer's protocol. Approximately, 50 μg of anti-YFP was bound to the resin. The samples were incubated with the resin overnight at 4° C. Next, the samples were washed and eluted the following morning and prepped for analysis by combining equal volumes of 2×8M Urea sample buffer and then boiling the samples for 5 minutes. The boiled samples were run on a 4-12% SDS-Bis Tris gel in MOPS buffer for 40 minutes. The gel was then blotted using the Invitrogen iBlot™ (Life Technologies; Carlsbad, Calif.) following the manufacturer's protocol. The blotted membrane was blocked for 10 minutes using 5% non-fat dry milk in PBS-Tween solution. The membrane was probed with the primary antibody (monoclonal anti-GFP in rabbit) used at a 1:1000 dilution in the 5% non-fat dry milk in PBS-Tween solution for 1 hour. […]
(In western blotting, separated proteins are transferred to a membrane and probed.)

The test system of test [2] is tobacco (cv. Petit Havana). Briefly: Postemergence glyphosate tolerance of dgt-28 transformed T1 and T2 tobacco. Type of test: in vivo. Particulars: 14 DAT, 2240 g ae/ha glyphosate (DURANGO DMA). The text has this: Postemergence herbicide tolerance in dgt-28 transformed T1 tobacco. T1 resistant plants from each event used in the progeny testing were given unique identifiers and sampled for zygosity analyses of the dgt-28 gene. Zygosity data were used to assign 2 hemizygous and 2 homozygous replicates to each rate of glyphosate applied allowing for a total of 4 replicates per treatment. These plants were compared against wildtype Petite havana tobacco. All plants were sprayed with a track sprayer set at 187 L/ha. The plants were sprayed from a range of 560-4480 g ae/ha DURANGO DMA™. All applications were formulated in water with the addition of 2% w/v ammonium sulfate (AMS). Plants were evaluated at 7 and 14 days after treatment. Plants were assigned an injury rating with respect to overall visual stunting, chlorosis, and necrosis. The T1 generation is segregating, so some variable response is expected due to difference in zygosity.
Rates of DURANGO DMA™ ranging from 420-3360 g ae/ha glyphosate were applied to 2-3 leaf tobacco as previously described.

B1: TraP8: chimeric chloroplast transit peptide SEQ ID NO:3; N-terminus from Brassica napus EPSPS CTP, C-terminus from Brassica rapa (protein)
chain: MAQSSRICHGVQNPCVIISNLSKSNQNKSPFSVSLKTHQQQRRAYQISSWGLKKSNNGSVIRPVK
modifications: TraP8 chimeric chloroplast transit peptide
notes: N-terminus from Brassica napus EPSPS CTP, C-terminus from Brassica rapa
Take B1: the “Localization of YFP fluorescence in tobacco leaf cells” value in test [1] is given as “accumulated within the chloroplasts”. Further, the “Processing (cleavage) of transit peptide from YFP by Western blot” value in the test with YFP protein is recorded as “processed”. Further, in test [2], the “% Injury Ave” value was 9.3%.
